Measured values reported in patent US20230340555A1, “PRODUCTION OF GLYCOSYLATED CANNABINOIDS” (WILLOW BIOSCIENCES, INC., priority 2020, published 2023).

What was measured:
[1] = tested on: CN3 yeast strain host cells; experiment: Detection of glycosylated cannabinoids and cannabinoid precursors in yeast cells expressing UDP-glycosyl transferase (HPLC-MS); assay type: cell-based; parameters: key to CBDA-glc / OLA-glc / CBGA-glc / CBGA-(glc)2 / CBD-glc / CBD-(glc)2 / OLA-(glc)2 / CBGA-glucuronic acid: (+) represents the lowest detected quantities; (++), (+++), and (++++) signify relative increasing intermediate detected levels; (++), (+++), and (++++) signify relative increasing intermediate detected levels; (++), (+++), and (++++) signify relative increasing intermediate detected levels; (+++++) represents the highest detected quantities; No detectable levels of a glycosylated cannabinoid compound or glycosylated cannabinoid precursor compound are indicated by “n.d.”; conditions: for CBD-(glc)2 / CBD-glc: 0.5 g/L CBD; for production of glycosylated cannabinoids or cannabinoid precursor compounds: pellet or supernatant of recombinant yeast host cells transformed with the UGT
From the text: CN3 yeast strain host cells were transformed as described in Example 1 with one of the following heterologous UGT genes: (1) AtUGT73C6, (2) AtUGT73B4, (3) AtUGT71 D1, (4) AtUGT76E12, (5) AtUGT88A1, (6) HaUGT76G1-L, (7) At5g49690, (8) AtUGT76C4, (9) CsUGT73C6, (10) SrUGT76C1, (11) AtUGT85A3, (12) AtUGT73B1, (13) Atg65550, (14) AtUGT76B1, (15) ATUGT76B1, (16) CsUGT75B2, (17) CsUGT73B4, (18) CsUGT73B1, (19) CsUGT75D1-DN11028, and (20) CsUGT71D1-DN48028. The transformed host cells were pre-grown overnight in yeast extract peptone dextrose (YPD) growth medium and then back diluted into yeast extract peptone galactose (YPG) to OD600 = 0.2. […] Strains were incubated for 20 h at 28° C. rotating at 600 RPM in an EPOCH|2 microplate reader (BioTek). Subsequently, samples were treated with an extraction solvent (80 % Acetonitrile, 20 % Methanol) for 1 hour rotating at 100 RPM. After 20 minutes centrifugation at 12,000 RPM, the supernatant was filtered with a basix 13 mm syringe filter (0.22 µm pore size, Nylon membrane) and transferred to a new tube for further analysis.
Glycosylated cannabinoid compounds and glycosylated cannabinoid precursor compounds were assayed in the supernatant and the cellular pellet employing HPLC and HPLC-MS analysis. HPLC and HPLC-MS analysis was carried out as described below to detect the following glycosylated cannabinoid and cannabinoid precursor compounds: CBGA monoglucoside, CBGA diglucoside, CBDA monoglucoside, CBDA diglucoside, CBGA glucuronic acid, CBD monoglucoside, CBD diglucoside, olivetolic acid monoglucoside (“OliAcid monoglucoside”), olivetolic acid diglucoside (“OliAcid diglucoside”).
HPLC analysis was carried out on an Agilent Technologies 1290 Infinity system, consisting of a vacuum degasser, a binary pump, a thermostated autosampler, a thermostated column compartment and a diode array detector (DAD). A Zorbax Eclipse Plus EC-18 column (2.1 × 50 mm, 1.8 µm, Agilent, USA) was used with a mobile phase composed of 0.1% formic acid in both (A) water with 0.2 % Formic Acid and (B) Acetonitrile with 0.2 % Formic Acid. The chromatographic conditions were set as follows: 0.0-8.0 min linear gradient from 5 to 95% B; 8.1-9.09 min […], 9.10-11.0 min 5 to 95% A for equilibration of the column with the initial conditions. The flow rate was set at 0.4 ml/min. The column temperature was set at 40° C. The sample injection volume was 5 µL. The UV/DAD acquisitions were carried out in the range 190-400 nm and chromatograms were acquired at 265 and 350 nm.
HPLC-MS analysis was carried out to confirm the identity of the HPLC peaks using an Agilent Technologies 6530 Accurate-Mass quadrupole time of flight (QToF) mass spectrometer operating in negative ionization (ESI -) mode. The mass spectrometer experimental parameters were set as follows: the capillary voltage was 3.5 kV, the nebulizer (N2) pressure was 35 psi, the drying gas temperature was 350° C., the drying gas flow was 11 L/min and the skimmer voltage was 65 V. Data were acquired by Agilent Mass Hunter software. The mass spectrometer was operated in full-scan mode in the m/z range 50-1100. Extracted ion chromatograms (EICs) were obtained with an accuracy of 10 ppm m/z from total ion chromatogram (TIC) employing the m/z corresponding to the molecular ions [M-H]^- 385.1504 for Olivetolic Acid Mono-Glucoside, 547.2032 for Olivetolic Acid di-Glucoside, 521.2756 for CBGA Mono-Glucoside, 683.3284 for CBGA Di-Glucoside, 535.2549 for CBGA Glucuronic Acid, 519.2600 for CBDA Mono-Glucoside, 475.2701 for CBD Mono-Glucoside, 637.3302 for CBD Di-Glucoside.
The glycosylated cannabinoid compounds and glycosylated cannabinoid precursor compounds were detected in a relative and semi-quantitative fashion. […]

[2] = tested on: bacterial strain BL21 (DE3); experiment: CBDA depletion in BL21 (DE3) strains expressing UGTs (UHPLC-MS); assay type: cell-based; conditions: 0.1 mM CBDA, induced with 100 µM IPTG for 4h at 37° C. vs controls without induction
From the text: The following cDNAs encoding UGTs from Arabidopsis thaliana, Cannabis sativa and Helianthus annuus UGTs were cloned into pDONOR-zeo (as described in Example 1) and then recombined into the prokaryotic expression vector pDEST14: AtUGT73C6 (SEQ ID NO: 3), AtUGT88A1 (SEQ ID NO: 5), AtUGT71 D1 (SEQ ID NO: 7), AtUGT73B4 (SEQ ID NO: 9), AtUGT76C4 (SEQ ID NO: 11), AtUGT76E12 (SEQ ID NO: 13), and At5g49690 (SEQ ID NO: 17), CsUGT73C6 (SEQ ID NO: 15), HaUGT76G1L (SEQ ID NO: 1), and SrUGT76G1 (SEQ ID NO: 19). Host cells from the bacterial strain BL21 (DE3) were transformed individually pDEST14 vector.
A BL21 (DE3) single colony was inoculated in liquid media and incubated at 37° C. overnight. The bacterial cultures were diluted to a final 0.6 OD and CBDA was added to a final concentration of 0.1 mM. The cultures were split, and half was induced with 100 µM IPTG for 4h at 37° C. to express the UGTs and the other half was kept as controls without induction of UGT expression.
Subsequently, samples were treated with a 1:1 volume of acetonitrile for 15 minutes at 250 RPM. After 30 minutes centrifugation at 4,000 RPM, samples were diluted 1000-fold in the same solvent for further analysis.
CBDA depletion was assayed employing UHPLC-MS analysis. The instrument used was a Thermo Vanquish UHPLC connected to a Thermo TSQ Altis mass spectrometer. The UHPLC consists of a vacuum degasser, a ternary pump, a thermostated autosampler held at 5° C., and a thermostated column compartment. An Accucore C18 (150 × 2.2 mm, 2.6 µm, Thermo, USA) was used. The mobile phase is water with 0.1 % formic acid (A) and acetonitrile with 0.1 % formic acid (B) on a linear gradient (see Table 5). The flow rate was set at 0.800 mL/min. The column temperature was set at 30° C. The sample injection volume was 1 µL.
MS analyses were carried out in order to ensure the identity of the peaks and were performed on a Thermo TSQ Altis triple quadrupole mass spectrometer using electrospray ionization in negative mode. Compounds were analyzed using selected reaction monitoring using two ion pairs for quantitation and confirmation respectively.

[3] = 20 h growth, detected in PELLET, 0.05 mM hexanoic acid
[4] = 20 h growth, detected in PELLET
[5] = 20 h growth, detected in SUPERNATANT, 0.2 mM hexanoic acid
[6] = 20 h growth, detected in SUPERNATANT

B1: AtUGT73C6: UDP-glycosyl transferase from Arabidopsis thaliana, amino acid sequence SEQ ID NO: 4 (protein, listed as Arabidopsis thaliana)
chain: MAFEKNNEPFPLHFVLFPFMAQGHMIPMVDIARLLAQRGVLITIVTTPHNAARFKNVLNRAIESGLPINLVQVKFPYQEAGLQEGQENMDLLTTMEQITSFFKAVNLLKEPVQNLIEEMSPRPSCLISDMCLSYTSEIAKKFKIPKILFHGMGCFCLLCVNVLRKNREILDNLKSDKEYFIVPYFPDRVEFTRPQVPVETYVPAGWKEILEDMVEADKTSYGVIVNSFQELEPAYAKDFKEARSGKAWTIGPVSLCNKVGVDKAERGNKSDIDQDECLEWLDSKEPGSVLYVCLGSICNLPLSQLLELGLGLEESQRPFIWVIRGWEKYKELVEWFSESGFEDRIQDRGLLIKGWSPQMLILSHPSVGGFLTHCGWNSTLEGITAGLPMLTWPLFADQFCNEKLVVQILKVGVSAEVKEVMKWGEEEKIGVLVDKEGVKKAVEELMGESDDAKERRRRAKELGESAHKAVEEGGSSHSNITFLLQDIMQLAQSNN
CBDA-glc [1, 3]: +++ | CBGA-(glc)2 [1, 3]: ++ | CBGA-glc [1, 3]: ++++ | CBGA-glucuronic acid [1, 3]: ++ | OLA-(glc)2 [1, 3]: ++ | OLA-glc [1, 3]: +++ | CBD-(glc)2 [1, 4]: ++ | CBD-glc [1, 4]: +++ | CBGA-(glc)2 [1, 5]: + | CBGA-glc [1, 5]: + | OLA-glc [1, 5]: +++ | CBD-(glc)2 [1, 6]: ++ | CBD-glc [1, 6]: +++ | production of glycosylated cannabinoids or cannabinoid precursor compounds [1]: detected | decrease in CBDA content [2]: 12%

B2: CsUGT73B1: UDP-glycosyl transferase from Cannabis sativa, amino acid sequence SEQ ID NO: 36 (protein, listed as Cannabis sativa)
chain: MSKEIWVVPFFGQGHLFPSMELCKQIASRNINTLLVIPSNLSFSIPSSLRQYPLLQIVEIQPTSAPSAQPGPDPIDQPPHGNPDQFEMGLENLLQAQVTGPDSVRPICAILDVMMDWTTEVFNKFDIPTIGFFTSGACSAAMEYGLWKAQPIDLKPGEVRLLPGLPEEMAVTYLDTNQRPHQPPGPPLHLFGVGHQGPFVDGAHRPPGPPPPPYLGRAGPRQRGPPKHGSQPPWVDGLKGSIALMINTCDYLERPFIEYLTKQIGKPVWGVGPLLPEQFWNSVSSNSILHDHEIRTNRQSNVSEDDVIQWLDSKPRGSVLYVCFGTEVSPSMEEYSELADALEASTQPFIWVVHSGTGRSGPPPSRGPTQEDYFPHGLASQVGPKGLIINGWAPQLLILSHSSIGGFLTHCGWNSTVEAIGLGVPLLAWPIRGDQNYNAKLVVAHLKLGFMISDNLSEKIKKHEIVKGIKTLMGDDDIKSRARNLAAIFQKGFPISSTTNLDVFRDMINNFT
production of glycosylated cannabinoids or cannabinoid precursor compounds [1]: No production

B3: CsUGT73B4: UDP-glycosyl transferase from Cannabis sativa, amino acid sequence SEQ ID NO: 34 (protein, listed as Cannabis sativa)
chain: MSKGHTIPLLHLARVLLNRHVTVTIFTTPANRSFITKFLPATSAAIVELPFPKNIPGVPNGVENTEDFPTMSMSMFYSLVLGTQNMKPDLDRALENIQTPVSFMVSDGFLWWTLDSASKLGFPRLVFYGMSHYAMAVYHSLFNSKKPKQTETETVVSDFPWIKLTRSEYDPSAQNGEDQSLAHEFMSKATEATNNSFGMIYNSFYELEPMFTDYWNQKVGPKSWPLGPLCLHDMKIESRGLVVHPWLDEKESSSVLYVAFGSQATVSSEQVREIAKGLEYSNVNFFWVLRKLEPEENKFLEEFEKRVKNRGIVVRDWVNQMEILKHKSVKGFFSHCGWNSVMESLSAGLPILGFPMMAEQHINAKMVVEEIKIGLRVKSYDGSLNGIVKSEEVSKMVKELMEGEVGKEMRKKVEEFAVMAHKAVQKGGSSWETLDLLLSSTKQRIHHY
production of glycosylated cannabinoids or cannabinoid precursor compounds [1]: No production

B4: CsUGT75B2: UDP-glycosyl transferase from Cannabis sativa, amino acid sequence SEQ ID NO: 32 (protein, listed as Cannabis sativa)
chain: MVQPRFLILAFPLQGTINPCLNLANQLIRVANAQVTFVTSVNAHRLIMTTHTVATTSNNLLSFSPFFDGYDEGVTDGKGFHDHFVEFKRRGWQAVGDILELGFKEGRPYTCLVYSILLTWAADVAATHNVPASMFWMQPATVFDVYYYYFHGHKEIICANTKNHSFSLSFPRIPLTMNLKDLPSLMVDSNYSYILTMLHEMYKDFEKESNNTKIILVNTFDELEPDALRAINKFNLIGIGPLITSKTSFSFRNYIEWLNTKPKKTVVYVSFGSILILKKQQMDEIAKGLLEFGHPFLWVIKEKNSSSKEGVHEDNIKNELSYKEELEKLGMIVPWCSQMEVLRNESLGCFVTHCGWNSTLESIVSGVPVVAFPQWTDQQTNAKLIEEMWKIGVRVKPDEDGIVKSEEIKRCLELVMSKNENRTEIVKNVKKWQNLTKEAMREGGSSEKNLITFVKSIHQ
production of glycosylated cannabinoids or cannabinoid precursor compounds [1]: No production
